The results in this text go back to the nanobody polyreactivity screen of Harvey et al. (2022).

This data set is described as follows: yeast display, Sf9 membrane polyspecificity reagent, FACS + sequencing; frameworks hold sequencing errors. A digest of the protocol:
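Polyreactivity labels are assigned by the sorting gate from which each nanobody was recovered. The gates were low and high (top ~1%), set on anti-HA fluorescence for expression and streptavidin fluorescence for reagent binding. Before sorting, galactose-induced (36–48 hours) yeast display cells were stained for 1 hour at 4 °C with 10% biotinylated, detergent-solubilized Sf9 membrane reagent.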
For “QVQLVESGGRLVQAGGSLRLSCAASGRIFVRYAMGWYRQAPGKERELVAAISTRGGSTYYADSVKGRFTISRDNAKNTVYLQMNSLNPEDTAVYYCAAGPRPRPTDYWGQGTQVTVSS”, the “polyreactivity (PSR sort gate)” value is listed as “high polyreactivity”.

“QVQLVESGGRLVQAGGSLRLSCAASGRIFWGYALGRYRQAHGKVSELVAAITRSGGRTYYADSVKGRFTISRDNAKNTVYLQMTSLKREDTAVYYCNAVNSLQPYKFDYWVQGTQVTVSS”: the “polyreactivity (PSR sort gate)” value is reported as “high polyreactivity”.

As to “QVQLVESGGRLVQAGGSLRLSCAASGRIILRNAMGWYRQAPGKERELVAAISSSGGRKYYADSVKGRFTISRDNAKNTVYLQMNSLKPEDTAVYYCNARWHGSFDYWGQGTQVTVSS”, the “polyreactivity (PSR sort gate)” value was “low polyreactivity”.

As to “QVQLVESGGRLVQAGGSLRLSCAASGRTFYHNAMGWYRQAPGKERELVAVITWSGGSTYYADSVKGRFTISRDNAKNTVYLQMNSLKPEDTAVYYCATRRYGYERILYNYWGQGTQVTVSS”, the “polyreactivity (PSR sort gate)” value was “high polyreactivity”.

“QVQLVESGGRLVQAGGSLRLSCAASGRTIYGNVMGWYRQAPGKERELVAVISWSSGSTSYADSVKGRFTISRDNAKNTVYLQMKSLKPEDTAVFYCAADSVTRPAGDYWGHGTQVTVSS”: the “polyreactivity (PSR sort gate)” value was “low polyreactivity”.

Regarding “QVQLVESGGRLVQAGGSLRLSCAASGSIFALYAMGWYRQQPGKVRELVAAIRRGTSTKYADSVKGRFTISRDNAKNTVNLHMKSLKPEDTAVYYCNARYYYCSSISRWSDYWVQGTQVTVSS”, the “polyreactivity (PSR sort gate)” value is recorded as “high polyreactivity”.

Take “QVQLVESGGRLVQAGGSLRLSCAASGSIFFSNAMGWYRQAPGKERELVAAITSTGGSTYYADSVKGRFTISRDNAKNTVYLQMNSLKPEDTAVYYCAAASRRGYYYWGQGTQVTVSS”: the “polyreactivity (PSR sort gate)” value is given as “high polyreactivity”.

For “QVQLVESGGRLVQAGGSLRLSCAASGSIFLKYAMRWYRQAPGKERELVAAISSAGRTYYADSVKGRFTISRDNAKKTVYLQMNSLKPEETAVSYCAARYPYDWRHDYWGQGTQVTVSS”, the “polyreactivity (PSR sort gate)” value was “low polyreactivity”.

Turning to “QVQLVESGGRLVQAGGSLRLSCAASGSIFTPYAMGCYIQAPGKERELVAAIRSVVRTNYADSVKGRFTISRDNAKNTVYLQLNSLNPEDTAVYYCATAVYPDFEYDSWGQGTQVTVSS”, the “polyreactivity (PSR sort gate)” value is reported as “low polyreactivity”.

For “QVQLVESGGRLVQAGGSLRLSCAASGSIFVKYAMGWYRPAPGKERELVAAISGSGGSTYYADSVKGRFTISRDNAKTTVYLEMNSLKPEDTAVYYCAADDYFYSGRYGFEFWGHGTQVTVSS”, the “polyreactivity (PSR sort gate)” value is “low polyreactivity”.

Regarding “QVQLVESGGRLVQAGGSLRLSCAASGSIFYFNAMGWYRQAPGKERELVATISRRGGSTYYADSVKGRFTISRDNAKKTVYLQMNSLKPEDTAVYYCAADYYTLYPVYIKRYGYWGQGTQVTVSS”, the “polyreactivity (PSR sort gate)” value is reported as “high polyreactivity”.

Turning to “QVQLVESGGRLVQAGGSLRLSCAASGSIISWYAMGWYRQAPGKERELVAAISNSGGSTYYADSVKGRFTISRDNAKNTVYLQMNSLKPEDTAVYYCAAYDGDTYDWGQGTQVTVSS”, the “polyreactivity (PSR sort gate)” value was “high polyreactivity”.

On to “QVQLVESGGRLVQAGGSLRLSCAASGSILYIYAMGWYRQAPGKERELVAAISKNSADTYYADSVKGRFTISRDNAKNTVYLQMNSLKPEDTAVYYCAADVVKVAAYNYWGQGTQVTVSS”, for which the “polyreactivity (PSR sort gate)” value was “low polyreactivity”.

Take “QVQLVESGGRLVQAGGSLRLSCAASGSTFDNNAMGWYRQAPGKEREFVAAITYSGGGSTSYADSVKGRFTISRDNAKNTVYLQMNSLKAEDTAVYFCAARDFETDGYTLVAYIYWGQGSQVTVSS”: the “polyreactivity (PSR sort gate)” value was “low polyreactivity”.

As for “QVQLVESGGRLVQAGGSLRLSCAASGSTFGVNTKGWYRQAPGKEREFVAAITYGGGGTYYADSVKGRFTISRDNAKNTVYLQMNSLKPEDTAVYYCAARRAPKYYWGQGTQVTVSS”, the “polyreactivity (PSR sort gate)” value is recorded as “high polyreactivity”.

Regarding “QVQLVESGGRLVQAGGSLRLSCAASGSTFHDYAMGWYTPAPGKERELVAAIYNSGGSTYYADSVKGRFSISLDNAQNTVYLQMNRLKPEDSAVYYWAADVSWYWYYEYWGQGTQVTLSS”, the “polyreactivity (PSR sort gate)” value is on record as “low polyreactivity”.

Take “QVQLVESGGRLVQAGGSLRLSCAASGSTFWYYAMGWYRQAPGKERELVASITYSGGSTYYADSVKGRFTISRDTAKNTVYLQMNSLKPEDTAVYYCAAEGYYSNYHYWGQGTQVTVSS”: the “polyreactivity (PSR sort gate)” value is “low polyreactivity”.

Regarding “QVQLVESGGRLVQAGGSLRLSCAASGSTFYFYAMGWYRQEPGKERELVAAISFTDTSTYYADSVKARFTISRDNAKNNVYLQMNSLKPEDTAVYYCAADSDYWGQGTQVTVSS”, the “polyreactivity (PSR sort gate)” value is listed as “high polyreactivity”.

For the sequence “QVQLVESGGRLVQAGGSLRLSCAASGYIFYPNVMGWYRQAPGKERELVAAISSSGGSTYYADSVKGRFTISRDNAKNTVYLQMNSLKPEDTAVYYCAARSLRYADYRSSYQKDMYYWGQGTQVTVSS”, the “polyreactivity (PSR sort gate)” value is on record as “low polyreactivity”.

In the case of “QVQLVESGGRLVQAGGSLRLSCAASGYIVTIYAMGWYRQAPGKEREFVAAITWSGGRTYYADSVKGRFTISRDNPKNTVYIQRNSLTPEDTAVYYCDARVANYLSQMYYWGQGTQVTVSS”, the “polyreactivity (PSR sort gate)” value is listed as “high polyreactivity”.

In the case of “QVQLVESGGRLVQAGGSLRLSCAPSGRTFGVYAMGWYRQAPGKERELVAVISSSSGSTYYADSVKGRFTISRDNAKNTVYLQMNSLKPEDTAVYYCAADFFYESFRDDYWGQGTQVTVSS”, the “polyreactivity (PSR sort gate)” value was “low polyreactivity”.

Consider “QVQLVESGGRLVQAGGSLRLSCASSGSTFVPNDMGLYRQAPGKERELVAAISRSGDDTYYADSVKGRFTISRDNAKNNVYLQMNSLKPVYTAVYYCAASAGYAYNYWGQGTQVTVSS”, for which the “polyreactivity (PSR sort gate)” value was “low polyreactivity”.

As for “QVQLVESGGRLVQAGGSLRLSCDASGRTFYTNAMGWYRQEPGKEMELVAAISGRGSTYYADSVTGRFTISRDNAKNTVYLQMNSLKPEDTAVYYCAALLPGRSSSDYWGQGTQVTVSS”, the “polyreactivity (PSR sort gate)” value is listed as “high polyreactivity”.

For “QVQLVESGGRLVQAGGSLRLSCSASGRICAYYAKGWYRQAPGKDRELVADSTYADSVKGRFTISRDNAKNTVYLQMKSLKPEYTAVYYCAVDYHFFLSRTYLPGSKYDFWGLGTQVTVSS”, the “polyreactivity (PSR sort gate)” value is listed as “low polyreactivity”.

Consider “QVQLVESGGRLVQAGGSLRLSSAASGSTFVDYDMGWDRQAPGKERELVAAISGSGGRTYYADSVKGRFTISRDTAKNTVYLQLISVKPEDTAVYYCAAVNAGGELAYWGQGTQVTVSS”, for which the “polyreactivity (PSR sort gate)” value is reported as “high polyreactivity”.

Regarding “QVQLVESGGRLVQAGGSLRLSSAASGSTFYVYTMGWYRQAPGKEWELVAAISSGSSTNYADSVKGRFTISRDNAKNTVYLQMNSLQPEDTAVYYCAATRFSYVFPYRYDYWGQGTQVTVSS”, the “polyreactivity (PSR sort gate)” value is “low polyreactivity”.

As for “QVQLVESGGRLVQAGGSLRRSCAASGSTFASNAMRWYRPAPGKERELVAAITSRDASTYYADSVKGRFTISRDNAKNTVYLQMNSLKPEDTAVYYCATDGYSPAAFDYWGQGTQVTVSS”, the “polyreactivity (PSR sort gate)” value is recorded as “low polyreactivity”.

As to “QVQLVESGGRLVQAGGSRRLSCAASGSIFYRNAKRSYRQAPGKERELVAAISGRGGSTNYADSVKGRFTISRDNAKNTVYLQMNSLKPEDTAVYYCNRYGVSNILVRGGYWGQGTQVTVSS”, the “polyreactivity (PSR sort gate)” value is “high polyreactivity”.

In the case of “QVQLVESGGRLVQAVGSLRLRCAAAGRTFPVYAMGWYRQAPGKERELVAAIRGRSVRKYYADSVKGRFTISRDYAKNTVYLQMNSLKPEDTAVYYCAAYYLNPGMDYWGQGTQVTVSS”, the “polyreactivity (PSR sort gate)” value was “high polyreactivity”.

“QVQLVESGGRLVQAVGSLRLSCAASGFTSHKYAMGWYRQAPGKERELVAAITSSGGRTYYADSVKGRFTISRDNAKNTVYFQTNSLKPEDTAVYYCNKLGRVGDAREYWGQGTQVTVSS”: the “polyreactivity (PSR sort gate)” value is reported as “high polyreactivity”.

Regarding “QVQLVESGGRLVQSGGSLRLSCAASGSIFVWNAMGWYRQAPGKERELVAAISYDGGSTYYADSVKGRFTISRDNAKNTVYLQMNSLKPEDTAVYYCAFEYVYWLSWYFQYDYWGQGTQVTVSS”, the “polyreactivity (PSR sort gate)” value is “low polyreactivity”.

Turning to “QVQLVESGGSLVQAGGSLRLSCAASGSTFTKYVMGWYRQAPGKERELVAAISQSGTRTYYADSVKGRFTISRDNAKNTVYLQMNSLKPEDTAVYYCNKPVRNGSYHNRYNYWGQGTQVTVSS”, the “polyreactivity (PSR sort gate)” value is “high polyreactivity”.

With “QVQLVESGGSLVQAGGSLRLSCAATGRIFGPYAMGWYRQAPGKERELVATITWSGVSTYYADSVKGRFTLSRDNAKNTVYLQMNSLKPEDTAVYFCAADPQVIYRGFYQRDYWGQGTQVTVSS”, the “polyreactivity (PSR sort gate)” value is “low polyreactivity”.

As to “QVQLVESGGVLGQAGVSLRLSCAASGRIFDGNTMGWYIQAPGQEREFVAAISGGGSTYYADSVKGRFTISRDNAKNTVYLQMNSLKPEDTAVYYCAATTGPVPLKGDYWGQGTQVTVSS”, the “polyreactivity (PSR sort gate)” value is “low polyreactivity”.

On to “QVQLVESGGVLVQAAGSLRLSCAASGSIFDVNAMGWNRQAPGKEREFVAAISDSGGSTYYADSVKGRFTISRDNGKNTVYLQMNSLKPEDTAVYYCNADWSWYNYYDFDYWGQGTQVTVSS”, for which the “polyreactivity (PSR sort gate)” value is listed as “low polyreactivity”.

For the sequence “QVQLVESGGVLVQAGGCLRLSCAASGSILDLNAMGWYRQAPGKERELVAAISLSGGTTYYADSVKGRFTISRDNAKNTVYLQMYSLKPEDTAVYYCNAGYFRPRAGNYVFGVESDYWGQGTQVTVSS”, the “polyreactivity (PSR sort gate)” value is “high polyreactivity”.

Turning to “QVQLVESGGVLVQAGGIIRLSCAASGFIFVRYAMGWYRQAPGTERELVASIRSVGRTNYADSVKGRFTISRDNAKNTVYLQMNSLKPEDTAVYYCAAGYGSRSRPRGGYWGQGTQVTVSS”, the “polyreactivity (PSR sort gate)” value is on record as “high polyreactivity”.

Turning to “QVQLVESGGVLVQAGGSIRLTCAASGFTFSHYAMGWYRQAPGKERELVAAIRYSRASTYYADSVKGRFTISRYNAKNTVYLQMISVKPEDTSVYYCARPWWWAHHYDYDYWGQGSQVTVSS”, the “polyreactivity (PSR sort gate)” value is given as “low polyreactivity”.

“QVQLVESGGVLVQAGGSLPLSCAASGSTFRPNAMGWYRQAPGKERELVDGISLNGTTTYYADSVKGRFTISRDNEKNTVYIQMNSLKPVDTAVYYCSADYQFGSAAEPYVFFDPEMDYWGQGTQVTGSS”: the “polyreactivity (PSR sort gate)” value is recorded as “low polyreactivity”.

For the sequence “QVQLVESGGVLVQAGGSLRLICAASGRIFGYYAMGWYRQAPGKERELVAAISNGGSTHYADSVKGRFTISRDNAKNTVYLQMNSLKPEDTAVYFCAAKASRVDWGYGYWGQATQVTVSS”, the “polyreactivity (PSR sort gate)” value is on record as “high polyreactivity”.

Take “QVQLVESGGVLVQAGGSLRLSCAASGFIFAKYAMGWYRQAPGKERELVAAINGRGTSTYYADSVKGRFTISRDNAKNTVYLQMNSLKPEDTAVYYCAARLRSGYHGQYDREDYWGQGTQVTVSS”: the “polyreactivity (PSR sort gate)” value is given as “high polyreactivity”.
